B1: NAC11 (peptide, UniProt P37840 68-78, looked up)
peptide: GAVVTGVTAVA
notes: alpha-synuclein, residues 68-78 (NAC residues 8-18); also called NACore; αSyn 68–78; source: synthetic peptide (GenScript Biotech, purity ≥ 95%)
B2: NAC16 (peptide, UniProt P37840 63-78, looked up)
peptide: VTNVGGAVVTGVTAVA
notes: alpha-synuclein, residues 63-78 (NAC residues 3-18); also called αSyn 63–78; source: synthetic peptide (GenScript Biotech, purity ≥ 95%)

Key:
[1] = target: the molecule itself; assay: ANS fluorescence aggregation kinetics; 100 μM NAC peptide, 40 μM ANS, 1× PBS at acidic (pH 4.2 in the methods, 4.5 in the legend), neutral (7.2) or basic (8.0) pH, 37 °C, 1000 rpm
[2] = target: the molecule itself; assay: co-sedimentation; 100 μM NAC peptide incubated 48 h without ThT, centrifuged at 65 000 g for 1 h; UV–Vis spectra (400–600 nm) of soluble and insoluble fractions

Protein | binding result [1] | binding result [2]
B1 | binds | 
B2 |  | binds

Source: publication PMC12797002, “Hydrophobic residues in the α‐synuclein NAC domain drive seed‐competent fibril formation and are targeted by peptide inhibitors” (The Febs Journal, 2025)
